The values that follow come from article PMC9770967, “Native holdup (nHU) to measure binding affinities from cell extracts” (Science Advances, 2022).

Experiment [1] deals with SNX27_PDZ. The experiment in a line: nHU-MS, SNX27_PDZ bait, total SH-SY5Y extracts. Format: binding, human. The protocol: The empty His6-AviTag-MBP-TEV vector was used to produce biotinylated MBP for control experiments. Proteins were coexpressed with BirA biotin ligase (PET21a-BirA, Addgene, no. 20857) in Escherichia coli BL21(DE3) cells. At isopropyl-β-D-thiogalactopyranoside (IPTG) induction (1 mM IPTG at 18°C overnight), 50 μM biotin was added to the media. Harvested cells were lysed in a buffer containing 50 mM tris (pH 7.5), 150 to 300 mM NaCl, 50 μM biotin, 2 mM β-mercaptoethanol, cOmplete EDTA-free protease inhibitor cocktail (Roche, Basel, Switzerland), 1% Triton X-100, and trace amount of deoxyribonuclease, ribonuclease, and lysozyme. Lysates were frozen at −20°C before further purification steps. Lysates were sonicated and centrifuged for clarification. Expressed proteins were captured on in-house prepacked Ni-IDA (Protino Ni-IDA Resin, Macherey-Nagel, Duren, Germany) columns and were washed with at least 10 column volumes of cold wash buffer [50 mM tris (pH 7.5), 150 mM NaCl, and 2 mM β-mercaptoethanol] before elution with 250 mM imidazole. The Ni elution was collected directly on a preequilibrated amylose column (amylose high flow resin, New England Biolabs, Ipswich, MA). Amylose column was washed with 5 column volumes of cold wash buffer before fractionated elution in a buffer containing 25 mM Hepes (pH 7.5), 150 mM NaCl, 1 mM TCEP, 10% glycerol, 5 mM maltose, and cOmplete EDTA-free protease inhibitor cocktail. The concentration of proteins was determined by their ultraviolet absorption at 280 nm before aliquots were snap-frozen in liquid nitrogen and stored at −80°C.
For saturating streptavidin resin with biotinylated peptides or biotin, 50 μl of streptavidin resin was mixed with biotin or peptide at 40 to 60 μM concentration in 6 to 6.5 resin volume for 60 min. To saturate streptavidin resin with biotinylated proteins, 50 μl of streptavidin resin (Streptavidin Sepharose High Performance, Cytiva) was mixed with biotinylated MBP or MBP-PDZ at 40 to 50 μM concentration in 20× resin volume for 60 min. After saturation, resins were washed a single time [10 resin volume, holdup buffer: 50 mM tris (pH 7.5), 300 mM NaCl, and 1 mM TCEP, 0.22-μm filtered] and were depleted with biotin (10 resin volume, 10 min, holdup buffer supplemented with 100 μM biotin). Last, resins were washed two times (10 resin volume, holdup buffer).
For single-point nHU experiments carried out at ~10 μM bait concentration, 50 μl of saturated streptavidin resin was mixed with 200 μl of cell lysate (2 mg/ml). Titration experiments were carried out by mixing control and bait-saturated resin and keeping the total resin volume constant; e.g., ~5 μM bait concentration can be achieved by mixing 25 μl of bait-saturated streptavidin resin with 25 μl of control resin and 200 μl of cell lysate (2 mg/ml). Control and bait-saturated resins were prepared in larger amounts, and a serial dilution was prepared with these presaturated resins to achieve different resin ratios.
Unless specified elswhere, the nHU mixture was incubated at 4°C for 2 hours. After the incubation ended, the resin was separated from the supernatant by a brief centrifugation (15 s, 2000 g). Then, half of the supernatant was removed by pipetting without any delay to avoid any resin contamination; e.g., 100 μl of supernatant is collected if 200 μl of cell lysate was used as analyte. Alternatively, the supernatant can be centrifuged an additional time to clarify it further, removing any possible resin contamination. […]

Experiment [2] relates to SNX27_PDZ. Briefly: AP-MS control pull-down on leftover resin, SNX27_PDZ bait, total SH-SY5Y extracts. Type of experiment: binding, human. The note with it: n = 6. As for the experimental part: Leftover beads from nHU-MS experiments were washed three times immediately after the separation of the supernatant [10 resin volume in buffer containing 50 mM tris (pH 8.5), 150 mM NaCl, 1% Triton X-100, 10× cOmplete EDTA-free protease inhibitor cocktail, 2 mM EDTA, and 1 mM TCEP]. Then, the beads were washed two times [10 resin volume buffer containing 50 mM tris (pH 8.5), 150 mM NaCl, and 1 mM TCEP]. Last, captured protein was eluted from the resin in two steps, and the eluted fractions were pooled. For each elution, the beads were incubated for 30 min with three resin volume buffer containing 20 mM tris (pH 8.5), 100 mM NaCl, 500 μM TCEP, and 8 M urea. Between each step, the beads were separated by mild centrifugation, and the supernatant was removed by gentle pipetting.
The nHU samples were precipitated with trichloroacetic acid (TCA) 20% overnight at 4°C and centrifuged at 14,000 rpm for 10 min at 4°C. The protein pellets were washed twice with 1 ml of cold acetone and air-dried. […]
Samples were analyzed using an Ultimate 3000 nano-RSLC coupled in line via a nano-electrospray ionization source, with an LTQ-Orbitrap ELITE mass spectrometer (Thermo Fisher Scientific, San Jose, CA) or with the Orbitrap Exploris 480 mass spectrometer (Thermo Fisher Scientific, Bremen, Germany) equipped with a high field asymmetric ion mobility spectrometry (FAIMS) module. […]

For another experiment, the system named is full-length SNX27. The experiment in a line: nHU-WB titration, full-length SNX27 bait, total Jurkat extracts. Type of experiment: binding. The note with it: partial activity model (Eq. 4). As for the experimental part: The empty His6-AviTag-MBP-TEV vector was used to produce biotinylated MBP for control experiments. Proteins were coexpressed with BirA biotin ligase (PET21a-BirA, Addgene, no. 20857) in Escherichia coli BL21(DE3) cells. At isopropyl-β-D-thiogalactopyranoside (IPTG) induction (1 mM IPTG at 18°C overnight), 50 μM biotin was added to the media. […] Lysates were frozen at -20°C before further purification steps. Lysates were sonicated and centrifuged for clarification. Expressed proteins were captured on in-house prepacked Ni-IDA (Protino Ni-IDA Resin, Macherey-Nagel, Duren, Germany) columns and were washed with at least 10 column volumes of cold wash buffer [50 mM tris (pH 7.5), 150 mM NaCl, and 2 mM β-mercaptoethanol] before elution with 250 mM imidazole. The Ni elution was collected directly on a preequilibrated amylose column (amylose high flow resin, New England Biolabs, Ipswich, MA). […] The concentration of proteins was determined by their ultraviolet absorption at 280 nm before aliquots were snap-frozen in liquid nitrogen and stored at -80°C. […] To saturate streptavidin resin with biotinylated proteins, 50 μl of streptavidin resin (Streptavidin Sepharose High Performance, Cytiva) was mixed with biotinylated MBP or MBP-PDZ at 40 to 50 μM concentration in 20× resin volume for 60 min. […] Last, resins were washed two times (10 resin volume, holdup buffer). […]

B1: CNBP: Cellular nucleic acid-binding protein (protein, UniProt P62633 2-177, looked up)
CCHC-type zinc finger nucleic …: SSNECFKCGRSGHWARECPTGGGRGRGMRSRGRGGFTSDRGFQFVSSSLPDICYRCGESGHLAKDCDLQEDACYNCGRGGHIAKDCKEPKREREQCCYNCGKPGHLARDCDHADEQKCYSCGEFGHIQKDCTKVKCYRCGETGHVAINCSKTSEVNCYRCGESGHLARECTIEATA
With B1, at SNX27_PDZ [1] (apparent, Eq. 2, not filtered for significance), the pKapp_HU_not_filtered is recorded as 4.74. Also, the pKapp_significant_binders_HU on SNX27_PDZ [1] (apparent, Eq. 2, significant binders (1 σ, P < 0.05)) came to 4.74. Also, in the experiment on SNX27_PDZ [1] (n = 6), the BI_HU turned out to be 0.3538, the “FC_HU (log2 fold change)” value is given as -0.63 and the Ratio_HU worked out at 0.6462. For the same molecule, in the experiment with SNX27_PDZ [2], the “FC_AP (log2 fold change)” value was -0.3792 and the Ratio_AP is 0.7689.

B2: full-length SLC16A1: monocarboxylate transporter 1, endogenous full-length prey (protein, UniProt P53985 1-500, looked up)
chain: MPPAVGGPVGYTPPDGGWGWAVVIGAFISIGFSYAFPKSITVFFKEIEGIFHATTSEVSWISSIMLAVMYGGGPISSILVNKYGSRIVMIVGGCLSGCGLIAASFCNTVQQLYVCIGVIGGLGLAFNLNPALTMIGKYFYKRRPLANGLAMAGSPVFLCTLAPLNQVFFGIFGWRGSFLILGGLLLNCCVAGALMRPIGPKPTKAGKDKSKASLEKAGKSGVKKDLHDANTDLIGRHPKQEKRSVFQTINQFLDLTLFTHRGFLLYLSGNVIMFFGLFAPLVFLSSYGKSQHYSSEKSAFLLSILAFVDMVARPSMGLVANTKPIRPRIQYFFAASVVANGVCHMLAPLSTTYVGFCVYAGFFGFAFGWLSSVLFETLMDLVGPQRFSSAVGLVTIVECCPVLLGPPLLGRLNDMYGDYKYTYWACGVVLIISGIYLFIGMGINYRLLAKEQKANEQKKESKEEETSIDVAGKPNEVTKAAESPDQKDTDGGPKEEESPV
modifications: full-length
notes: monocarboxylate transporter 1, endogenous full-length prey
Regarding B2, the “f (active fraction)” value with full-length SNX27 is 0.9.
